Reference: article doi:10.1101/2025.06.05.658000 (2025)
Where two headings read alike, the source gives them in different places. No end group written: not given here. *: point of attachment. Biotin = O=C1N[C@H]2[C@H](CS[C@H]2CCCCC(=O)*)N1; Ahx = NCCCCCC(=O)O

Tests used:
Experiment in all cases: ELISA
[1] = biological target: T1, HLA-DR (DRA1*01:01 / DRB1*12:01), soluble knob-into-hole Fc heterodimer (human)
[2] = biological target: T2, HLA-DR (DRA1*01:01 / DRB1*07:01), soluble knob-into-hole Fc heterodimer (human)
[3] = biological target: HLA-DR (DRA1*01:01 / DRB1*03:01), soluble knob-into-hole Fc heterodimer (human)
[4] = biological target: HLA-DR (DRA1*01:01 / DRB1*04:06), soluble knob-into-hole Fc heterodimer (human)
[5] = biological target: HLA-DR (DRA1*01:01 / DRB1*01:02), soluble knob-into-hole Fc heterodimer (human)
[6] = biological target: HLA-DR (DRA1*01:01 / DRB1*11:04), soluble knob-into-hole Fc heterodimer (human)
[7] = biological target: HLA-DR (DRA1*01:01 / DRB1*13:02), soluble knob-into-hole Fc heterodimer (human)
[8] = biological target: HLA-DR (DRA1*01:01 / DRB1*14:01), soluble knob-into-hole Fc heterodimer (human)
[9] = biological target: HLA-DR (DRA1*01:01 / DRB1*14:54), soluble knob-into-hole Fc heterodimer (human)
[10] = biological target: HLA-DR (DRA1*01:01 / DRB1*16:02), soluble knob-into-hole Fc heterodimer (human)
[11] = biological target: HLA-DR (DRA1*01:01 / DRB1*11:01), soluble knob-into-hole Fc heterodimer (human)
[12] = biological target: HLA-DR (DRA1*01:01 / DRB1*09:01), soluble knob-into-hole Fc heterodimer (human)
[13] = biological target: HLA-DR (DRA1*01:01 / DRB1*15:03), soluble knob-into-hole Fc heterodimer (human)
[14] = biological target: HLA-DR (DRA1*01:01 / DRB1*12:02), soluble knob-into-hole Fc heterodimer (human)
[15] = biological target: HLA-DR (DRA1*01:01 / DRB1*04:07), soluble knob-into-hole Fc heterodimer (human)
[16] = biological target: HLA-DR (DRA1*01:01 / DRB1*13:01), soluble knob-into-hole Fc heterodimer (human)
[17] = biological target: T1, HLA-DR (DRA1*01:01 / DRB1*12:01), …; remark: listed apart in the source
[18] = biological target: HLA-DR (DRA1*01:01 / DRB1*04:03), soluble knob-into-hole Fc heterodimer (human)
[19] = biological target: HLA-DR (DRA1*01:01 / DRB1*04:04), soluble knob-into-hole Fc heterodimer (human)
[20] = biological target: HLA-DR (DRA1*01:01 / DRB1*15:01), soluble knob-into-hole Fc heterodimer (human)
[21] = biological target: HLA-DR (DRA1*01:01 / DRB1*01:01), soluble knob-into-hole Fc heterodimer (human)
[22] = biological target: HLA-DR (DRA1*01:01 / DRB1*04:01), soluble knob-into-hole Fc heterodimer (human)
[23] = biological target: HLA-DR (DRA1*01:01 / DRB1*04:05), soluble knob-into-hole Fc heterodimer (human)
[24] = biological target: HLA-DR (DRA1*01:01 / DRB1*15:02), soluble knob-into-hole Fc heterodimer (human)
[25] = biological target: HLA-DR (DRA1*01:01 / DRB1*10:01), soluble knob-into-hole Fc heterodimer (human)
[26] = biological target: T2, HLA-DR (DRA1*01:01 / DRB1*07:01), …; remark: listed apart in the source

In the case of VEGFNCYFPLQSYGF [SARS-CoV-2 RBD peptide RBD483-497], the Kd [1] is reported as 439 nM and the Kd [2] is reported as 173 nM.

For KPVSKMRMATPLLMQALPM (also: biotin-labeled), the Kd [3] was 15.1 nM, the Kd [4] was 2.63 nM and the Kd [5] was 1.78 nM. It also gave a Kd [6] of 4.54 nM, a Kd [7] of 4130 nM and a Kd [8] of 9.17 nM. The Kd [9] was 3.35 nM, the Kd [10] was 8.67 nM and the Kd [11] was 12 nM. The Kd [12] was 0.576 nM, the Kd [13] was 5.31 nM and the Kd [14] was 1.27 nM. It also gave a Kd [15] of 2.76 nM, a Kd [16] of 315 nM and a Kd [17] of 22.9 nM. The Kd [18] was 2.32 nM and the Kd [19] was 2.7 nM.

ADYNYKLPDDFTGCV [SARS-CoV-2 RBD peptide RBD419-433] gave a Kd [1] of over 10000 nM and a Kd [2] of over 10000 nM.

VVLSFELLHAPATVC [SARS-CoV-2 RBD peptide RBD511-525] showed a Kd [1] of 631 nM and a Kd [2] of 263 nM.

TESIVRFPNITNLCP [SARS-CoV-2 RBD peptide RBD323-337] gave a Kd [1] of 4930 nM and a Kd [2] of 435 nM.

{Biotin-Ahx}-KPVSKMRMATPLLMQALPM showed a Kd [20] of 2.13 nM, a Kd [21] of 1.83 nM and a Kd [22] of 2.35 nM. The Kd [23] was 14.9 nM, the Kd [24] was 8.75 nM and the Kd [25] was 1.27 nM. It also gave a Kd [26] of 4.09 nM.

In the case of GNYNYLYRLFRKSNL [SARS-CoV-2 RBD peptide RBD447-461, wildtype strain], the Kd [1] is reported as 229 nM and the Kd [2] is reported as 163 nM.
